Bridge positions count the residues as written; N and C are the ends. Square brackets hold non-standard residues; d marks the D form. Ends that are not written are not given here. Cha = N[C@@H](CC1CCCCC1)C(=O)O

Assay [1] concerns the target human collagen type I (acid soluble, extracted from placenta, Sigma C7774) (human) (UniProt P02452). Briefly: dried collagen assay, 5 uM each.
Assay [2] has as its target rat collagen (acid soluble, type I, rat tail, Upstate 08-115) (rat) (UniProt P02454). Briefly: dried collagen assay, 5 uM each.

Chain of human collagen type I (acid soluble, extracted from placenta, Sigma C7774) (human) (P02452 162-1218 limits assumed, chain 1 of 2): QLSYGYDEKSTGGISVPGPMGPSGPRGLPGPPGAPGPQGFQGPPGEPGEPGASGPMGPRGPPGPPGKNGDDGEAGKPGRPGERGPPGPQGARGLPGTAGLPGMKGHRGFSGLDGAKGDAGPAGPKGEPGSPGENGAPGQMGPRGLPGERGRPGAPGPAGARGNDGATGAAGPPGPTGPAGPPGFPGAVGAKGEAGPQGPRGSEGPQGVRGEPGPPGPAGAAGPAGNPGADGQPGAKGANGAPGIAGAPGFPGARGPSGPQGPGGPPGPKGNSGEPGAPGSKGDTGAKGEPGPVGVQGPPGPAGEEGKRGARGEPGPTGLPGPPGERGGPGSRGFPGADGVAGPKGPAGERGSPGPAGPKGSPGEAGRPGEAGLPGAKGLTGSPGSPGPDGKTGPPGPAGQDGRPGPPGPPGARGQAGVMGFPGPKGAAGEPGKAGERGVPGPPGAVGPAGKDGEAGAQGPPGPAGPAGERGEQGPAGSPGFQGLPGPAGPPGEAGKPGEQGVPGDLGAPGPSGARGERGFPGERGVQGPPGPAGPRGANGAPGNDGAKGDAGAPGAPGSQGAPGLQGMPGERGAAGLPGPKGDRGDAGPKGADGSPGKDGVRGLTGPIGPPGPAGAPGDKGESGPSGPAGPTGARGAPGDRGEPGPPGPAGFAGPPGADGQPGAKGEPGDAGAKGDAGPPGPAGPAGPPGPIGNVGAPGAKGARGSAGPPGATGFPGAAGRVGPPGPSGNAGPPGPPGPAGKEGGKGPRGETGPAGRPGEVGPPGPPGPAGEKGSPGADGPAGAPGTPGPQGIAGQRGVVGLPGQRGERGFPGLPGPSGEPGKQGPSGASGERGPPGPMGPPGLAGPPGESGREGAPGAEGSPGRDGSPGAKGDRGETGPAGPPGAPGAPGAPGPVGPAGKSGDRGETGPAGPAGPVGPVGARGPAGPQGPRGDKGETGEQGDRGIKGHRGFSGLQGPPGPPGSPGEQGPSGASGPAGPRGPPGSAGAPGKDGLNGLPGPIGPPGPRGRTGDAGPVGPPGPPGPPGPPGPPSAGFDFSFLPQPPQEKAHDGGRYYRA
Chain of human collagen type I (acid soluble, extracted from placenta, Sigma C7774) (human) (P08123 80-1119 limits assumed, chain 2 of 2, further chain): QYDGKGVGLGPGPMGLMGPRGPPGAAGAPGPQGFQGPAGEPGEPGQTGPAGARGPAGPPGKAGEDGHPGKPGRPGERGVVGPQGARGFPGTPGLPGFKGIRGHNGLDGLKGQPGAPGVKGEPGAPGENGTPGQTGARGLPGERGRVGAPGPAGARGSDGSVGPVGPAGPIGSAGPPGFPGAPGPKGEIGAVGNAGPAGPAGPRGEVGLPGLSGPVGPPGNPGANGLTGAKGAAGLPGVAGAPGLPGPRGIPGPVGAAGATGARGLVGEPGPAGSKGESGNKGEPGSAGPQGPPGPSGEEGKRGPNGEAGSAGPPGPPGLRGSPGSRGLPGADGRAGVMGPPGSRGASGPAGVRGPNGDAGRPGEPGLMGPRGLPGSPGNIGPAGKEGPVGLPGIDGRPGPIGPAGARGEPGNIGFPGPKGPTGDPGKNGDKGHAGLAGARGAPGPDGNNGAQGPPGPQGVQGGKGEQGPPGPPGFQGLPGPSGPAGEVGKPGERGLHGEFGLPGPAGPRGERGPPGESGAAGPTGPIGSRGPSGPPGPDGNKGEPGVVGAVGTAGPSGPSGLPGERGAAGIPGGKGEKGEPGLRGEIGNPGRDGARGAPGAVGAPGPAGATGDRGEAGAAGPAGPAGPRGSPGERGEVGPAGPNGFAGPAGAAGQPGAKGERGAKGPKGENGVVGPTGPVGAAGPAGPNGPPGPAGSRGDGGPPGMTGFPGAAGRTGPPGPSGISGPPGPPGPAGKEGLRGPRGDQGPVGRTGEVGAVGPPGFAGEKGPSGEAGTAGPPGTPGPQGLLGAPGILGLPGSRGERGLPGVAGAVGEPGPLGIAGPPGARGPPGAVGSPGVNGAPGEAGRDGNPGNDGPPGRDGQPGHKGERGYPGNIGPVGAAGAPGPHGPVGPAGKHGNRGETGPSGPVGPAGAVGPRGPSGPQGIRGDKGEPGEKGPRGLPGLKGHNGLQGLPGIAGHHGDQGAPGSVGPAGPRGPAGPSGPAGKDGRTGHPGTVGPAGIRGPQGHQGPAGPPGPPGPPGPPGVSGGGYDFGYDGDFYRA
Chain of rat collagen (acid soluble, type I, rat tail, Upstate 08-115) (rat) (P02454 152-1207, chain 1 of 2): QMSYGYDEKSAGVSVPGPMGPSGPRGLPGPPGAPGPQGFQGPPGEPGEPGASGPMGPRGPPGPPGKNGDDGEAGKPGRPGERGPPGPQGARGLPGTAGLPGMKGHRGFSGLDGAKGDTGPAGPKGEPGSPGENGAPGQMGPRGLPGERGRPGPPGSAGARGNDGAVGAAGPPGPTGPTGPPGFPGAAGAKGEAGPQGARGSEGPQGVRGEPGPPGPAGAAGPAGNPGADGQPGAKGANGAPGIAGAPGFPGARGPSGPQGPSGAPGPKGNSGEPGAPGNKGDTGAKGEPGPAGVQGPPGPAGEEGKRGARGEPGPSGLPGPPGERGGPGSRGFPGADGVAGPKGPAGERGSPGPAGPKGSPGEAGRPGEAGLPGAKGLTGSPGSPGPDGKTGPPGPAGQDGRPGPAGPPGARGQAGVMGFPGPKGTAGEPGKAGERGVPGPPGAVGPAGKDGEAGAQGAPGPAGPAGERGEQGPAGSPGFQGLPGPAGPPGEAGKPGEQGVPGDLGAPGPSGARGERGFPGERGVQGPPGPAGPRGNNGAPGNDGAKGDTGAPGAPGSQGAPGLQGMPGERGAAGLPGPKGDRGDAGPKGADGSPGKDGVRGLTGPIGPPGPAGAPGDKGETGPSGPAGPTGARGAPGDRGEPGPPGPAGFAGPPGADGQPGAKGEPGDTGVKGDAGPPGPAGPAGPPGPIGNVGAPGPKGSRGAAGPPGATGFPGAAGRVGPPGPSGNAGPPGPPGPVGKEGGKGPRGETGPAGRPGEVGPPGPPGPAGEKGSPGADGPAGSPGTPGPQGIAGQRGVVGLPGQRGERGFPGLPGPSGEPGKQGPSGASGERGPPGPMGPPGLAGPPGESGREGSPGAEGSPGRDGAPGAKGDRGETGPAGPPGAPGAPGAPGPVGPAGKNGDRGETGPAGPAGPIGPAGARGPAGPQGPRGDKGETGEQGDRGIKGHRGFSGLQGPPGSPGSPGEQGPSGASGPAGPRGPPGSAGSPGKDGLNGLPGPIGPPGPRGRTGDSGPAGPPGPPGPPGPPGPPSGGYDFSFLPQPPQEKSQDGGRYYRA
Chain of rat collagen (acid soluble, type I, rat tail, Upstate 08-115) (rat) (P02466 86-1125, chain 2 of 2, further chain): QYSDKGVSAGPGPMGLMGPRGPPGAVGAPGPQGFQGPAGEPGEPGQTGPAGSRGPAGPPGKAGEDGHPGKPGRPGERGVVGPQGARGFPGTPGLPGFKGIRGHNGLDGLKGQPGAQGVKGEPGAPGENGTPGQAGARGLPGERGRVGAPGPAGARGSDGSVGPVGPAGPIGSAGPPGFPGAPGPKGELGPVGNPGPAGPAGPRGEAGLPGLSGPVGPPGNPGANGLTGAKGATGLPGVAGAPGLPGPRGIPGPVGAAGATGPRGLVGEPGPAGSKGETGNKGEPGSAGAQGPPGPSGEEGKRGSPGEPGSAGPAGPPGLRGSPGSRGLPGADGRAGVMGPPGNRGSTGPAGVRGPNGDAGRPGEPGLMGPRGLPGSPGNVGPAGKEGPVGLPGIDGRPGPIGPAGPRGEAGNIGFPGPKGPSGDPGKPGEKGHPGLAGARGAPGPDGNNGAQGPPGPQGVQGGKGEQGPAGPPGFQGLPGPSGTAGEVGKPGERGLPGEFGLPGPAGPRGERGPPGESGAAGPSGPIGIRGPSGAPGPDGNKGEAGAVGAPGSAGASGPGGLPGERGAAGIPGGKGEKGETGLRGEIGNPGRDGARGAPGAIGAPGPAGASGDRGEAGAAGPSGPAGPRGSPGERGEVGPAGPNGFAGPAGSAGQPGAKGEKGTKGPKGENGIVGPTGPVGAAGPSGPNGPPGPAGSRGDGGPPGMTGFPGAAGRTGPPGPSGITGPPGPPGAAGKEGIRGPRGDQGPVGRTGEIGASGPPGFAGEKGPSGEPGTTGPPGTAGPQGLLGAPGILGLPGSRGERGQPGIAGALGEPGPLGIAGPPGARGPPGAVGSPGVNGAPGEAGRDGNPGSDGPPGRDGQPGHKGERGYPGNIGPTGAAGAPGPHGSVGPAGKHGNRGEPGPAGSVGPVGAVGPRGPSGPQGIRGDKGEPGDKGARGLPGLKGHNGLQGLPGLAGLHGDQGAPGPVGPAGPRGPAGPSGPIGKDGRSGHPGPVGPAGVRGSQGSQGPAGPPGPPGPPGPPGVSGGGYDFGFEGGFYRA

Molecule GQWHCTTRFAHHYCLYG [Compound ID 938] returned a Human binding in assay [1] of 16%. The same molecule showed a Rat binding in assay [2] of 13%.

GQWKCTTRFPHHYCLYG [Compound ID 956]: the Human binding in assay [1] was found to be 39%. The Rat binding in assay [2] was found to be 15%.

For the molecule GDWHCTTLFPHHYCLYG [Compound ID 910], in assay [1], the Human binding is 13%. In assay [2], this molecule displayed a Rat binding of 0%.

For AWHCTTLFPHHYCLYG [Compound ID 909], the Human binding in assay [1] was 14%. This molecule also came in with a Rat binding in assay [2] of 0%.

Regarding GQWHCTTRFPHHYCFYG [Compound ID 931], the Human binding in assay [1] was found to be 70%. The molecule further had a Rat binding in assay [2] of 83%.

In assay [1], KKGQWHCTTYFPHHYCLYG [Compound ID 960] registered a Human binding of 30%. The molecule further returned a Rat binding in assay [2] of 34%.

GQWHCTTLFPHHYCVYG [Compound ID 928] yielded a Human binding in assay [1] of 73%. The Rat binding in assay [2] amounted to 80%.

As for GQWHCTRRFPHHYCLYG [Compound ID 900], the Human binding in assay [1] is 4%. Further, in assay [2], the Rat binding stood at 1%.

For GQWHCTYLFPHHYCLYG [Compound ID 921], the Human binding in assay [1] turned out to be 68%. In addition, in assay [2], the Rat binding amounted to 35%.

GQWHCTTLFPNHYCLYG [Compound ID 923] registered a Human binding in assay [1] of 28%. Moreover, the Rat binding in assay [2] amounted to 10%.

In assay [1], GAWHCTTLFPHHYCLYG [Compound ID 908] came in with a Human binding of 20%. For the same molecule, the Rat binding in assay [2] came out at 0%.

In assay [1], GKWHCTTYFPHWYCLYG [Compound ID 948] showed a Human binding of 25%. The Rat binding in assay [2] turned out to be 17%.

For GQWHCTT[Cha]FPHHYCLYG (disulfide 5-14 (inferred)) [Compound ID 918], in assay [1], the Human binding came to 19%. In addition, the Rat binding in assay [2] stood at 0%.

The molecule GKWHCTTLFPHHYCLYG [Compound ID 930] returned a Human binding in assay [1] of 31%. This molecule also had a Rat binding in assay [2] of 42%.

In assay [1], GQWHCTYRFPHHYCLYG [Compound ID 899] had a Human binding of 20%. In assay [2], this molecule yielded a Rat binding of 14%.

Molecule GQWHCTTRFPHHTCLYG [Compound ID 905] came in with a Human binding in assay [1] of 6%. This molecule also came in with a Rat binding in assay [2] of 2%.

Molecule GSWHCTTLFPHHYCLYG [Compound ID 911] returned a Human binding in assay [1] of 15%. This molecule gave a Rat binding in assay [2] of 0%.

GQWHCTKRFPHHYCLYG [Compound ID 940] returned a Human binding in assay [1] of 9%. This molecule also showed a Rat binding in assay [2] of 8%.

With GQWHCTTLFPHHYCIYG [Compound ID 927], the Human binding in assay [1] was 64%. This molecule also had a Rat binding in assay [2] of 63%.

For the molecule GKWHCTTYFPHYYCLYG [Compound ID 947], in assay [1], the Human binding was 64%. Also, the Rat binding in assay [2] is 57%.

Take GQWHCTTRFPKHYCLYG [Compound ID 958]: in assay [1], the Human binding worked out at 45%. For the same molecule, the Rat binding in assay [2] turned out to be 33%.

The molecule AWHCTTRFPAHYCLYG [Compound ID 937] had a Human binding in assay [1] of 11%. In assay [2], this molecule registered a Rat binding of 14%.

Consider GAWHCTTYFPHHYCLYG [Compound ID 915], for which, in assay [1], the Human binding amounted to 15%. The molecule further came in with a Rat binding in assay [2] of 0%.

GKWHCTTYFPHHYCVYG [Compound ID 942] came in with a Human binding in assay [1] of 78%. Besides, the Rat binding in assay [2] came out at 67%.

On to GQWHCTTFFPHHYCLYG [Compound ID 929], for which the Human binding in assay [1] was found to be 27%. Moreover, the Rat binding in assay [2] is 34%.

In turn, GKWHCTTYFPYHYCLYG [Compound ID 946] showed a Human binding in assay [1] of 71%. The Rat binding in assay [2] worked out at 68%.

PPWHCTTLFPHHYCLYG [Compound ID 912] returned a Human binding in assay [1] of 20%. In assay [2], this molecule yielded a Rat binding of 0%.

The molecule GQWHCTTIFPHHYCLYG [Compound ID 917] showed a Human binding in assay [1] of 12%. Further, in assay [2], the Rat binding worked out at 0%.

GKWHCTTYFPHHYCLYY [Compound ID 949]: the Human binding in assay [1] was found to be 72%. The molecule also showed a Rat binding in assay [2] of 79%.

For the molecule GQWHCTSRFPHHYCLYG [Compound ID 898], in assay [1], the Human binding was 5%. The molecule also returned a Rat binding in assay [2] of 3%.

On to GKWHCYTYFPHHYCVYY [Compound ID 945], for which, in assay [1], the Human binding was 83%. In addition, the Rat binding in assay [2] turned out to be 82%.

As for GQWNCTTLFPHHYCLYG [Compound ID 922], in assay [1], the Human binding stood at 68%. Also, the Rat binding in assay [2] was 58%.

In the case of GKWHCTTYFPTHYCLYG [Compound ID 962], in assay [1], the Human binding amounted to 20%. Further, the Rat binding in assay [2] came to 10%.

For GQWHCKTRFPHHYCLYG [Compound ID 957], in assay [1], the Human binding stood at 42%. In addition, the Rat binding in assay [2] was found to be 39%.

With GQWHCTDRFPHHYCLYG [Compound ID 936], the Human binding in assay [1] came out at 9%. The same molecule showed a Rat binding in assay [2] of 5%.

On to GQWHCTTRFPHHRCLYG [Compound ID 902], for which, in assay [1], the Human binding stood at 7%. The Rat binding in assay [2] was 2%.

In assay [1], GQWHCTTLFPHNYCLYG [Compound ID 924] came in with a Human binding of 24%. In addition, the Rat binding in assay [2] was determined as 1%.

For the origin of these results see patent US20080058636A1, “METHODS OF MYOCARDIAL IMAGING” (Epix Pharmaceuticals, Inc., priority 2005, published 2008).
